Source: patent US20240424125A1 (Zymeworks, published 2024)

Tests used:
[1] = target: T1, recombinant His-tagged human FRα (ACROBiosystems) (human, UniProt P15328 25-233); test: BLI (Octet RED96); end of the range tied to v30394 by Table 8.1
T1 construct: also called hFRα; hFRα antigen; not shown: His tag
Description: (§1) The assay buffer used was KB buffer (kinetics buffer, composed of PBS pH 7.4, 0.1% BSA, 0.02% Tween 20, 0.05% sodium azide) supplemented with 0.06% Tween 20 and in some instances also with 1% BSA. The experiment was conducted at 30° C. with a shake speed of 1000 rpm.
(§2) Data analysis was performed using Data Analysis Software 9.0 (ForteBio, Fremont CA). The reference-subtracted binding curves were globally fitted to the 1:1 interaction model to generate the binding kinetic parameters kₒₙ, koff, and the dissociation constant KD.

[2] = target: T1, recombinant His-tagged human FRα …; test: BLI (Octet RED96): antibody on anti-human IgG Fc capture biosensor, His-tagged hFRα as analyte, 1:1 global fit, mean of n=2
Description: as §1, §2

[3] = target: T1, recombinant His-tagged human FRα …; test: BLI (Octet RED96); end of the range tied to v31426 by Table 8.1
Description: as §1, §2

[4] = target: T1, recombinant His-tagged human FRα …; test: SPR (Biacore T200): hFRα amine-coupled to CM5 chip at high antigen density, bivalent FSA injected, 1:1 Langmuir fit, mean of n=2
Description: (§3) CM5 Series S sensor chip, Biacore™ amine coupling kit (NHS, EDC and 1 M ethanolamine), and 10 mM sodium acetate buffers were purchased from GE Healthcare Life Science (Mississauga, ON, Canada). PBS running buffer with 0.05% Tween20 (PBST) was purchased from Teknova Inc. (Hollister, CA). Recombinant human FRα was purchased from ACRObiosystems (Newark, DE).
(§4) Screening of the variants for binding to hFRα antigen was conducted in two steps: capture of hFRα onto surface, followed by injection of three to five concentrations of variant. The hFRα surface was prepared on a CM5 Series S sensor chip by standard amine coupling methods as described by the manufacturer (GE Healthcare Life Science, Mississauga, ON, Canada). The immobilization of the hFRα was performed using Biacore™ T200 immobilization wizard with an amine coupling method aiming for resonance units (RUs) ranging from 5 to 200 RUs. Using multi-cycle kinetics, three to five concentrations of a two-fold dilution series of samples starting at 300 nM with a blank buffer control were injected at 50 uL/min for 180s with a 600s dissociation phase, resulting in a set of sensorgrams with a buffer blank reference. The hFRα surface was regenerated to prepare for the next injection cycle by one pulse of 10 mM glycine/HCl pH 1.5 for 30s at 30 uL/min. Blank-subtracted sensorgrams were analyzed using Biacore™ T200 Evaluation Software v3.0. The blank-subtracted sensorgrams were then fit to the 1:1 Langmuir binding model.

[5] = target: T1, recombinant His-tagged human FRα …; test: SPR (Biacore T200): hFRα amine-coupled to CM5 chip at medium-low antigen density, bivalent FSA injected, 1:1 Langmuir fit, mean of n=2
Description: as §3, §4

[6] = target: T1, recombinant His-tagged human FRα …; test: SPR (Biacore T200): hFRα amine-coupled to CM5 chip at medium antigen density, bivalent FSA injected, 1:1 Langmuir fit, mean of n=2
Description: as §3, §4

[7] = target: T1, recombinant His-tagged human FRα …; test: SPR (Biacore T200), high antigen density; end of the range tied to v30399 by Table 8.3
Description: as §4

FCGR1A = target: T2, FCGR1A (human, UniProt P12314); test: Retrogenix cell microarray, fixed cell confirmation screen, HEK293 cells overexpressing the protein, v36675 at 20 µg/mL, detection with AF647 anti-hIgG H+L; the text calls FcgR signals Fc-domain mediated
T2 construct: overexpressed on reverse-transfected HEK293 cells, fixed; One of the FcgR receptors that the text names only as a group
T2 sequence (P12314 16-374 limits assumed): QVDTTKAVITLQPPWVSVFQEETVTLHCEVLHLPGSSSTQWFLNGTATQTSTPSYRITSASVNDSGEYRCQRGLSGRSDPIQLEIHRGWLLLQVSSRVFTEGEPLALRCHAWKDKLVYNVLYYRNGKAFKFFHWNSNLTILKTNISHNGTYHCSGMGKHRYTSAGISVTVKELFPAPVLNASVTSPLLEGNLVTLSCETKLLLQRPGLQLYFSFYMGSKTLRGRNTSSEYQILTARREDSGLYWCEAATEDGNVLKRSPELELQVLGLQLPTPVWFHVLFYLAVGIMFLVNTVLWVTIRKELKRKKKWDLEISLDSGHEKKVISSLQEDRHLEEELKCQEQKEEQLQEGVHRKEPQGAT
Description: (§5) Fluorescent images were analysed and quantitated (for transfection) using ImageQuant™ software (Version 8.2; GE Healthcare, Chicago, IL). A protein hit was defined as a duplicate spot showing an increased signal compared to background levels and was identified by visual inspection using the images gridded on the ImageQuant™ software. Hits were classified as strong, medium, weak or very weak by visual inspection by two experienced scientists based on the intensity of the duplicate spots.

FCGR2A = target: T3, FCGR2A (human, UniProt P12318); test: as above
T3 construct: overexpressed on reverse-transfected HEK293 cells, fixed; One of the FcgR receptors that the text names only as a group
T3 sequence (receptor chain, looked up): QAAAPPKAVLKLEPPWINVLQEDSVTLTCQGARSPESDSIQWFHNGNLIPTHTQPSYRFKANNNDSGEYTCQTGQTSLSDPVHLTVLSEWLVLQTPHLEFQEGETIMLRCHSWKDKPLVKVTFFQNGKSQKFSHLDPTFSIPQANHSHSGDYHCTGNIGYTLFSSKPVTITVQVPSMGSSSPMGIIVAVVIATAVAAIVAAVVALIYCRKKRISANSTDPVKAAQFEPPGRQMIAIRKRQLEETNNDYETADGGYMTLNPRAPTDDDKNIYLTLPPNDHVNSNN
Description: as §5

human FRα on cells = target: T4, human FRα on cells (human, UniProt P15328 25-234); test: apparent Kd, flow cytometry, CHO-S cells transiently expressing human FRα, 24 h at 4°C
T4 construct: Transiently expressed on HEK293-6e, CHO-S or HEK293 microarray cells, or endogenous on JEG-3, HEC-1-A, IGROV-1, OVCAR-3, H2110, KB-HeLa and T-47D cells; also called human folate receptor alpha; FOLR1
T4 sequence (P15328 25-234 limits assumed): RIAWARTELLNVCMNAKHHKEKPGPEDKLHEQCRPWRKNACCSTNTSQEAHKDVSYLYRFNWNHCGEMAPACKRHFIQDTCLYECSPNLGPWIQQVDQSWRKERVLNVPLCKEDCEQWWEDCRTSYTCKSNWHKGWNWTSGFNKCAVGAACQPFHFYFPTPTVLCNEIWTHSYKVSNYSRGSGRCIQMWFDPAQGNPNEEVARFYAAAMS
Description: Briefly, CHO-S cells were transfected for −24 hours to transiently express human or cynomolgus monkey FRα, 1 ug DNA per 1 million cells. Following transfection, cells were seeded at 50,000 cells/well in V-bottom 96-well plates and treated with antibody for 24 hours at 4° C. to prevent internalization. […] Following incubation and washing, fluorescence was detected by flow cytometry on a BD LSRFortessa™ Cell Analyzer (BD Biosciences, Franklin Lake, NJ).

[8] = target: T1, recombinant His-tagged human FRα …; test: BLI (Octet RED96); end of the range tied to v35305 by Table 20.1
Description: as §1, §2

[9] = target: T1, recombinant His-tagged human FRα …; test: BLI (Octet RED96) as in Example 8: antibody captured, His-tagged hFRα as analyte, mean of n=2
Description: as §1, §2

[10] = target: T1, recombinant His-tagged human FRα …; test: BLI (Octet RED96); end of the range tied to v35348 by Table 20.1
Description: as §1, §2

T1 sequence (P15328 25-233 limits assumed): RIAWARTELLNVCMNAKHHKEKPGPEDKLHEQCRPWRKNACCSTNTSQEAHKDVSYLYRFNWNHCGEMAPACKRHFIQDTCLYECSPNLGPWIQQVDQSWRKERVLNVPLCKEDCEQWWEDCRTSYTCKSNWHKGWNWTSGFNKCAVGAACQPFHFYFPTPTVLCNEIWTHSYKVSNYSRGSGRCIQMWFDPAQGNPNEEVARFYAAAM

B1: v30394 (antibody, human IgG1, kappa)
heavy 1: EVQLLESGGGLVQPGGSLRLSCAVSGFSLSSYGVSWVRQAPGKGLEWIGAVNSGGSAYYADWAKGRSTISRDNSKNTVYLQMNSLRAEDTAVYYCARSGSGYPMDYLAIWGQGTLVTVSSASTKGPSVFPLAPSSKSTSGGTAALGCLVKDYFPEPVTVSWNSGALTSGVHTFPAVLQSSGLYSLSSVVTVPSSSLGTQTYICNVNHKPSNTKVDKKVEPKSCDKTHTCPPCPAPELLGGPSVFLFPPKPKDTLMISRTPEVTCVVVDVSHEDPEVKFNWYVDGVEVHNAKTKPREEQYNSTYRVVSVLTVLHQDWLNGKEYKCKVSNKALPAPIEKTISKAKGQPREPQVYVYPPSRDELTKNQVSLTCLVKGFYPSDIAVEWESNGQPENNYKTTPPVLDSDGSFALVSKLTVDKSRWQQGNVFSCSVMHEALHNHYTQKSLSLSPG
heavy 2: not shown
light: DYQMTQSPSSVSASVGDRVTITCRASQSIGDWLAWYQQKPGKAPKLLIYEASTLASGVPSRFSGSGSGTDFTLTISSVQPEDAATYYCQQGYGRSNVDNIFGGGTKVEVKRTVAAPSVFIFPPSDEQLKSGTASVVCLLNNFYPREAKVQWKVDNALQSGNSQESVTEQDSKDSTYSLSSTLTLSKADYEKHKVYACEVTHQGLSSPVTKSFNRGEC
notes: Humanized IgG1/kappa, HetFc; also called 4H4L
B1 was tested, and the “fold reduced affinity compared to the parental chimera antibody v23924” value [1] was 2 fold and the Kd [2] was 0.063 µM.

B2: v31426 (antibody, human IgG1, kappa)
heavy: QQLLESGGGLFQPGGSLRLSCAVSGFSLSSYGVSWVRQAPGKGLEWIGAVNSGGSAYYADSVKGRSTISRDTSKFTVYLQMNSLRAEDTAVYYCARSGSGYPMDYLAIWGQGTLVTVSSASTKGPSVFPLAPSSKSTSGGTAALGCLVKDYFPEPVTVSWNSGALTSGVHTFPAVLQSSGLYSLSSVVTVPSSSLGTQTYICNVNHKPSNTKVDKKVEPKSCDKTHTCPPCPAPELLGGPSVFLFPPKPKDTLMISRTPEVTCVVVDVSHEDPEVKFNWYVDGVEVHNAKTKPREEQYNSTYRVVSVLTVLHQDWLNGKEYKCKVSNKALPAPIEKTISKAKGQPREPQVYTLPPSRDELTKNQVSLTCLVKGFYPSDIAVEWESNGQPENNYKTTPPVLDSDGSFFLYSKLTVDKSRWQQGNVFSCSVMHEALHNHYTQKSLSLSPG
light: DYQMTQSPSSVSASVGDRVTITCRASQSIGDWLAWYQQKPGKAPKLLIYEASTLASGVPSRFSGSGSGTDFTLTISSVQPEDAATYYCQQGYGRSNVDNIFGGGTKVEVKRTVAAPSVFIFPPSDEQLKSGTASVVCLLNNFYPREAKVQWKVDNALQSGNSQESVTEQDSKDSTYSLSSTLTLSKADYEKHKVYACEVTHQGLSSPVTKSFNRGEC
notes: Humanized IgG1/kappa, HomoFc; also called 3gH4L
In the case of B2, the “fold reduced affinity compared to the parental chimera antibody v23924” value [3] is reported as 8 fold and the Kd [2] is reported as 0.21 µM.

B3: v30399 (antibody, human IgG1, kappa)
heavy 1: EVQVLESGGGLVQPGGSLRLSCAVSGFSLSSYGVSWVRQAPGKGLEWIGAVNSGGSAYYADWAKGRSTISRDNSKNTVYLQMNSLRAEDTAVYYCARSGSGYPMDYLAIWGQGTLVTVSSASTKGPSVFPLAPSSKSTSGGTAALGCLVKDYFPEPVTVSWNSGALTSGVHTFPAVLQSSGLYSLSSVVTVPSSSLGTQTYICNVNHKPSNTKVDKKVEPKSCDKTHTCPPCPAPELLGGPSVFLFPPKPKDTLMISRTPEVTCVVVDVSHEDPEVKFNWYVDGVEVHNAKTKPREEQYNSTYRVVSVLTVLHQDWLNGKEYKCKVSNKALPAPIEKTISKAKGQPREPQVYVYPPSRDELTKNQVSLTCLVKGFYPSDIAVEWESNGQPENNYKTTPPVLDSDGSFALVSKLTVDKSRWQQGNVFSCSVMHEALHNHYTQKSLSLSPG
heavy 2: not shown
light: DYQMTQSPSSVSASVGDRVTITCRASQSIGDWLAWYQQKPGKAPKLLIYEASTLASGVPSRFSGSGSGTDFTLTISSVQPEDAATYYCQQGYGRSNVDNIFGGGTKVEVKRTVAAPSVFIFPPSDEQLKSGTASVVCLLNNFYPREAKVQWKVDNALQSGNSQESVTEQDSKDSTYSLSSTLTLSKADYEKHKVYACEVTHQGLSSPVTKSFNRGEC
notes: Humanized IgG1/kappa, HetFc; also called 4bH4L
B3 gave a Kd [4] of 0.000709 µM, a Kd [5] of 0.00371 µM and a Kd [6] of 0.00267 µM. The Kd [2] was 0.069 µM and the “fold lower KD in FSA compared to one-armed antibody (OAA) format” value [7] was 116 fold.

B4: v36675 (antibody, human IgG1, kappa)
heavy: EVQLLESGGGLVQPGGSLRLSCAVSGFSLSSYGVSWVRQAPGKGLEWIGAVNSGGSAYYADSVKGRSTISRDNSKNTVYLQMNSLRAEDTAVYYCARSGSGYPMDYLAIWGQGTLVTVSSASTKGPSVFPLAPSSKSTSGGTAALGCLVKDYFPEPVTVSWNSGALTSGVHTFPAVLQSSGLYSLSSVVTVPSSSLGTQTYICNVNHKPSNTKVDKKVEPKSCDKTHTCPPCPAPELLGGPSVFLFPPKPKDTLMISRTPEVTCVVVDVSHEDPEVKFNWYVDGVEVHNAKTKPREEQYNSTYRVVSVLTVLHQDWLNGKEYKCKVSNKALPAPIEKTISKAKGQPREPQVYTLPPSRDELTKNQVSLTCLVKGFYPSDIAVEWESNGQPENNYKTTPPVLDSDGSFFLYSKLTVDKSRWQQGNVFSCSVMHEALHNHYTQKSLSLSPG
light: DYQMTQSPSSVSASVGDRVTITCRASQSIGDWLAWYQQKPGKAPKLLIYEASTLASGVPSRFSGSGSGTDFTLTISSVQPEDAATYYCQQGYGRSNVDNIFGGGTKVEVKRTVAAPSVFIFPPSDEQLKSGTASVVCLLNNFYPREAKVQWKVDNALQSGNSQESVTEQDSKDSTYSLSSTLTLSKADYEKHKVYACEVTHQGLSSPVTKSFNRGEC
notes: Same paratopes as v30384 but HomoFc instead of HetFc; also called humanized variant v36675
B4: binds (FCGR1A); binds (FCGR2A).

B5: Palivizumab (anti-RSV) (v22277) (antibody, V domains shown)
VH: QVTLRESGPALVKPTQTLTLTCTFSGFSLSTSGMSVGWIRQPPGKALEWLADIWWDDKKDYNPSLKSRLTISKDTSKNQVVLKVTNMDPADTATYYCARSMITNWYFDVWGAGTTVTVSS
VL: DIQMTQSPSTLSASVGDRVTITCKCQLSVGYMHWYQQKPGKAPKLLIYDTSKLASGVPSRFSGSGSGTEFTLTISSLQPDDFATYYCFQGSGYPFTFGGGTKLEIK
Binder B5 has a Kd (human FRα on cells) greater than 0.05 µM.

B6: v35305 (antibody, human IgG1, kappa, V domains shown)
VH: EVQLLESGGGLVQPGGSLRLSCAVSGFSLSLYGVSWVRQAPGKGLEWIGAVNSGGSAYYADSVKGRSTISRDNSKNTVYLQMNSLRAEDTAVYYCARSGSGYPMDYLAIWGQGTLVTVSS
VL: DYQMTQSPSSVSASVGDRVTITCRASQSIWYWLAWYQQKPGKAPKLLIYEASTLASGVPSRFSGSGSGTDFTLTISSVQPEDAATYYCQQGYGRSNVDNIFGGGTKVEVKR
For B6, the “fold improvement of affinity over the parental humanized antibody v30384” value [8] was 12 fold and the Kd [9] was 0.0108 µM.

B7: v35348 (antibody, human IgG1, kappa, V domains shown)
VH: EVQLLESGGGLVQPGGSLRLSCAVSGFSLSLYGVSWVRQAPGKGLEWIGAVNSGGSAYYADSFKGRSTISRDNSKNTVYLQMNSLRAEDTAVYYCARSGSGYPMDYHPIWGQGTLVTVSS
VL: DYQMTQSPSSVSASVGDRVTITCRASQSIGDWLAWYQQKPGKAPKLLIYEASTLASGVPSRFSGSGSGTDFTLTISSVQPEDAATYYCQQGYGRWHILNIFGGGTKVEVKR
B7 was tested, and the “fold improvement of affinity over the parental humanized antibody v30384” value [10] was 58 fold and the Kd [9] was 0.0022 µM.
